2 molecules from patent US20170247716A1 (PIONEER HI BRED INTERNATIONAL, published 2017) can be followed below.

B1: ZmRTL4-Cub-PLV (other)
chain: MENDRRQLGQIDPRRARFPCCIVWTPIPFITWLVPFIGHIGICREDGVILDFSGPHFVSVDNFAFGAVARYIQVNCDECYKLIEPEGDATWDGALKKGTQEFQNRNYNLFTCNCHSFVANNLNRLFYSGHDEWNVVSLAAVMFLRGRWVSTASVVKTLLPFAVVLSIGTFLGGTTFLTGLLAFAAAMTVWFLVGTYCIKGLIEL
notes: domain: C-terminal half of ubiquitin (Cub); Bait of the split-ubiquitin yeast two-hybrid system; the legend prints ZmRTE4-Cub-PLV; also called ZmRTE4-Cub-PLV; ZmRTL4 bait construct; not shown: C-terminal half of ubiquitin (Cub); synthetic transcription factor PLV (protease A-LexA-VP16)
B2: AtARL-NubG (other, UniProt Q8RXL7 1-135, looked up)
chain: MIREFSSLQNDIINIQEHYSLNNNMDVRGDHNRKNTSFRGSAPAPIMGKQELFRTLSSQNSPRRLISASYFSLESMVVLVGLTASLLILPLILPPLPPPPFMLLLIPIGIMVLLMVLAFMPSSNSKHVSSSSTFM
notes: Prey of the split-ubiquitin yeast two-hybrid system; also called Arabidopsis ARGOS-LIKE (ARL); not shown: N-terminal half of a mutated ubiquitin (NubG)

The target in the assay “AtARL-NubG” is B2. Briefly: yeast split-ubiquitin two-hybrid. On the procedure:
(§1) (B) β-Galactosidase assay for yeast diploid cells expressing AtRTE1-Cub-PLV and various ARGOS-NubG fusion proteins. Yeast cells were cultured in SC-Leu-Trp liquid medium. The β-Galactosidase (β-Gal) activity assay uses […] as a substrate. (C) Growth of yeast diploid cells from the mating of haploid strains containing ARGOS-NubG constructs and negative control […] construct. The plates were incubated at 28° C. for 4 days. (D) Liquid β-Galactosidase assay for yeast diploid cells expressing negative control AtCHX20-Cub-PLV and various ARGOS-NubG fusion proteins.
(§2) (A) Growth of yeast diploid cells on SC dropout media to show protein-protein interaction of ZmRTL4 with Arabidopsis and maize ARGOS. The SC-Leu-Trp and SC-Leu-Trp-His-Ade media contain 134 and 375 μM Met, respectively. The plates were incubated at 28° C. for 4 days. (B) β-Galactosidase assay for yeast diploid cells expressing ZmRTE4-Cub-PLV and various ARGOS-NubG fusion proteins. (C) Growth of yeast diploid cells on SC dropout media to show protein-protein interaction of ZmRTL2 with Arabidopsis and maize ARGOS. The SC-Leu-Trp and SC-Leu-Trp-His-Ade media contain 134 μM Met. The plates were incubated at 28° C. for 5 days. (D) β-Galactosidase assay for yeast diploid cells expressing ZmRTE2-Cub-PLV and various ARGOS-NubG fusion proteins. […]

For a further assay, the target named is T1, AtRTE1-Cub-PLV (Arabidopsis, UniProt F4ITL6 1-250).
T1 construct: Bait of the mating-based split-ubiquitin yeast two-hybrid system; also called AtRTE1 bait construct; not shown: C-terminal half of ubiquitin (Cub); synthetic transcription factor PLV (protease A-LexA-VP16)
T1 sequence (looked up): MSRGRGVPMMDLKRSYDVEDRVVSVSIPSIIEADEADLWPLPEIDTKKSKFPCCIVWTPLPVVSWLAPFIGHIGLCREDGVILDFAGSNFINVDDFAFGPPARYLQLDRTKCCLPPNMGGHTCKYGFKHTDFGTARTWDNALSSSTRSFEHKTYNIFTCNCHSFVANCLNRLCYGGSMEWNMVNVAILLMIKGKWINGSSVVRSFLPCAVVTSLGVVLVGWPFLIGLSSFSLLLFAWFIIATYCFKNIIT
Briefly: yeast split-ubiquitin two-hybrid. As to the method:
as §1, §2

Turning to B1, the binding result in the assay with AtARL-NubG is given as “binds”. For the molecule B2, in the assay with AtRTE1-Cub-PLV, the binding result is given as “binds”.
